Measured values from article PMC2447174, “A Cytoplasmic Domain Mutation in ClC-Kb Affects Long-Distance Communication Across the Membrane” (PLoS ONE, 2008).

What was measured:
[1] = target: the molecule itself; assay: SEC-MALS; Shodex PROTEIN KW-802.5 column, 200 mM NaCl, 20 mM Tris-Cl pH 7.5, protein at 1 mg/mL, room temperature (23°C); self-association, dimer
[2] = target: the molecule itself; assay: SEC-MALS; data not shown; 'monodispersed dimers, as observed with wild-type'; method taken from the wild-type experiment
[3] = target: the molecule itself; assay: cross-linking; spontaneous disulfide cross-linking of introduced cysteines in purified KbC in TBS7.5 (200 mM NaCl, 10 mM Tris pH 7.5, 5 mM ß-mercaptoethanol); SDS-PAGE in reducing (250 mM ß-mercaptoethanol) and oxidizing conditions

Protein | stoichiometry N [2] | other results
ClC-Kb C-terminal domain (domain or fragment, human, UniProt P51801 538-684, looked up, ClC-Kb chloride channel, human, C-terminal cytoplasmic domain, amino acids 538-684; read here as KbC following MBP; MBP was removed with Factor Xa and washed away on the cation-exchange column; also called ClC-Kb cytoplasmic domain; ClC-Kb C-terminal cytoplasmic domain; source: E. coli, purified (amylose column, Factor Xa digestion, cation exchange); not shown: MBP, N-terminal, cleaved) RNIGSHRVRVEHFMNHSITTLAKDMPLEEVVKVVTSTDVAKYPLVESTESQILVGIVRRAQLVQALKAEPPSWAPGHQQCLQDILAAGCPTEPVTLKLSPETSLHEAHNLFELLNLHSLFVTSRGRAVGCVSWVEMKKAISNLTNPP | – | stoichiometry N [1]: 2
ClC-Kb C-terminal domain double mutant K604C-A644C (domain or fragment, human, UniProt P51801 538-684, looked up, ClC-Kb chloride channel, human, C-terminal cytoplasmic domain, amino acids 538-684, K604C and A644C; also called 604-644 cysteine double mutant; source: E. coli, purified (amylose column, Factor Xa digestion, cation exchange); not shown: MBP, N-terminal, cleaved) RNIGSHRVRVEHFMNHSITTLAKDMPLEEVVKVVTSTDVAKYPLVESTESQILVGIVRRAQLVQALCAEPPSWAPGHQQCLQDILAAGCPTEPVTLKLSPETSLHECHNLFELLNLHSLFVTSRGRAVGCVSWVEMKKAISNLTNPP | 2 | –
ClC-Kb C-terminal domain with the L650C mutation (domain or fragment, human, UniProt P51801 538-684, looked up, ClC-Kb chloride channel, human, C-terminal cytoplasmic domain, amino acids 538-684, L650C; also called ClC-Kb-L650C; L650C mutant; source: E. coli, purified (amylose column, Factor Xa digestion, cation exchange); not shown: MBP, N-terminal, cleaved) RNIGSHRVRVEHFMNHSITTLAKDMPLEEVVKVVTSTDVAKYPLVESTESQILVGIVRRAQLVQALKAEPPSWAPGHQQCLQDILAAGCPTEPVTLKLSPETSLHEAHNLFECLNLHSLFVTSRGRAVGCVSWVEMKKAISNLTNPP | – | binding result [3]: binds
ClC-Kb C-terminal domain double mutant L603C-H645C (domain or fragment, human, UniProt P51801 538-684, looked up, ClC-Kb chloride channel, human, C-terminal cytoplasmic domain, amino acids 538-684, L603C and H645C; also called 603-645 cysteine double mutant; source: E. coli, purified (amylose column, Factor Xa digestion, cation exchange); not shown: MBP, N-terminal, cleaved) RNIGSHRVRVEHFMNHSITTLAKDMPLEEVVKVVTSTDVAKYPLVESTESQILVGIVRRAQLVQACKAEPPSWAPGHQQCLQDILAAGCPTEPVTLKLSPETSLHEACNLFELLNLHSLFVTSRGRAVGCVSWVEMKKAISNLTNPP | 2 | –
